# According to patent publication US20240254229A1 (Molecular Partners, published 2024):
# B1: DARPin® protein #27 (designed binder)
# chain: DLGKKLLEAALEGQLDEVRELLKAGADVNAKDQEGYTPLHLAAALGHLEIVEVLLKAGADVNAKDSIGRTPLHLAAYKGHLEIVEVLLKAGADVNAQDLLGETPADLAAEQGHQDIAEVLQKAAGSPTPTPTTPTPTPTTPTPTPTGSDLGVKLLLAASRGQLDEVRILLKAGADVNAKDIDEGYTPLHIAAYYGHLEIVEVLLKAGADVNAKDRYGKTPLHLAAISGHLEIVEVLLKAGADVNAQDDKGDTPADLAADYGHQDIAEVLQKAAGSPTPTPTTPTPTPTTPTPTPTGSDLGQKLLEAAWAGQDDEVRELLKAGADVNAKNSRGWTPLHTAAQTGHLEIFEVLLKAGADVNAKDDKGVTPLHLAAALGHLEIVEVLLKAGADVNAQDSWGTTPADLAAKYGHEDIAEVLQKAA
# notes: CD123-CD33-CD3; also called αCD123-aCD33-αCD3_1; not shown: N-terminal His-tag
# Columns and labels:
# [1] = molecular target: T1, hCD33 and hCD123 immobilized simultaneously on one switchSENSE chip (ratio 2:1, CD33:CD123) (human, UniProt P20138 18-259; P26951 19-305, limits assumed); assay: switchSENSE, CD33 and CD123 on one chip; fast phase (affinity); fast phase (affinity)
# T1 construct: Not a complex: two separate ligands on one surface; used for avidity values and for off-rates; also called both ligands; both targets attached to the surface of the chip
# Experimental: (§1) The designed ankyrin repeat proteins: DARPin® protein #20, DARPin® protein #21, DARPin® protein #22, DARPin® protein #27, DARPin® protein #40 and DARPin® protein #41 were tested in a concentration of 0.16 and 64 nM (in a buffer PE140 containing 10 mM Na2HPO4/NaH2PO4, 140 mM NaCl, 0.05% Tween20, 50 μM EDTA, 50 μM EGTA) for binding against two ligands hCD33 and hCD123, which both were immobilized simultaneously to DNA nanolevers, on the surface, at a pre-defined ratio (2:1, CD33:CD123) and 10% density (100:50) on an ADP-48-1-0 chip, where 100% density 1000 receptors/μm2 (preincubated R1-B48-CD123 and G1-A48-CD33 (100 nM) diluted in cNL-48 (dark)). Briefly the following steps were performed: [0724] Conjugation. Amine coupling of the two ligands (CD33 and CD123) to the DNA nanolever (A48, B48, respectively) and purification of the conjugates using the proFIRE® solution (Dynamic Biosensors GmbH) at 25° C. [0725] Evaluation of all the combined affinity and avidity of all different proteins to both ligands attached on the surface of an ADP chip using a DRX+ instrument (dynamic BIOSENSORS). [0726] Statistical analysis (repeatability from 2 to 5 times) including regeneration of the chip surface every concentration analyzed and long dissociation times and data were fitted using a bi-exponential global fit.
# [2] = molecular target: T2, human CD3 on primary human pan-T cells (human, UniProt P07766 23-207; P09693 23-182; P04234 22-171; P20963 22-164); assay: Mirrorball cytometry on primary human pan-T cells, 600 µM HSA
# T2 construct: whole, on cells; Native complex on T cells isolated from PBMC; also called CD3 on Pan-T cells
# Experimental: The determination of T cell binding was performed with primary human T cells using Mirrorball laser scanning imaging cytometry. Therefore, primary T cells were isolated from human peripheral blood mononuclear cells (PBMCs) using a pan-T cell purification kit (Miltenyi Biotec). A titration of DARPin® protein #27, DARPin® protein #28 and DARPin® protein #29 and DARPin® protein #30 were incubated with 50′000 pan-T cells per well in presence of 600 μM human serum albumin (to mimic physiological serum concentration) for 30 minutes at 4° C. Two benchmark T-cell engagers, AMG330 and flotetuzumab were applied as controls, targeting CD33 or CD123. After washing, CD3 binding was detected by 1:100-diluted anti-penta-His Alexa Fluor 488 antibody (Qiagen). After 30 min incubation at 4° C., cells were washed and resuspended in Cytofix fixation buffer (BD Biosciences) and counterstained by 5 μM DRAQ5 (Abcam) for 15 min at RT. Median of mean fluorescence intensities of Alexa Fluor 488 binding on far-red counterstained cells were measured by Mirrorball using Cellista software (SPT Labtech) and data was plotted using GraphPad Prism 8.
# [3] = molecular target: T1, hCD33 and hCD123 immobilized …; assay: switchSENSE, hCD33 and hCD123 co-immobilised 2:1; panel headed CD123, column KD2 (avidity, simultaneous binding of CD33 and CD123 per paragraph 696)
# Experimental: as §1
# T1 sequence (P20138 18-259 limits assumed, chain 1 of 2): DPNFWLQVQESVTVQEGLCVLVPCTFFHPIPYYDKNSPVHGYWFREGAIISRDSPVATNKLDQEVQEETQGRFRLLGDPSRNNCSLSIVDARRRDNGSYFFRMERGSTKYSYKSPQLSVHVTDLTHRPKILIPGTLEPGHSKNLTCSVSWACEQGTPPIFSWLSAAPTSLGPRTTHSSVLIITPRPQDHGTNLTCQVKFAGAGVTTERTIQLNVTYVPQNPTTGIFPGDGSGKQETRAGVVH
# T1 sequence (P26951 19-305 limits assumed, chain 2 of 2): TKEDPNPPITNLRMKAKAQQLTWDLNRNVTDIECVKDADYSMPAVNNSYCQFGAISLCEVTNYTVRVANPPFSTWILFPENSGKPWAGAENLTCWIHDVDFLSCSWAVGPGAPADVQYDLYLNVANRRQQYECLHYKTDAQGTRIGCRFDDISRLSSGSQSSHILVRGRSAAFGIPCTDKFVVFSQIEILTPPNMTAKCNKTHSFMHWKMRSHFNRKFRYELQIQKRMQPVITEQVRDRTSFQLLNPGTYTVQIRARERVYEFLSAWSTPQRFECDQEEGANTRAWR
# T2 sequence (P07766 23-207, chain 1 of 4): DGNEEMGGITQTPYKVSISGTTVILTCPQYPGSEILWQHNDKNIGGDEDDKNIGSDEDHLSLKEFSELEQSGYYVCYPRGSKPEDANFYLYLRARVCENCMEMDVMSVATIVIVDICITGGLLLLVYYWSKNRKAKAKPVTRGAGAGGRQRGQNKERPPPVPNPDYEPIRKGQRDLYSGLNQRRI
# T2 sequence (P09693 23-182, chain 2 of 4): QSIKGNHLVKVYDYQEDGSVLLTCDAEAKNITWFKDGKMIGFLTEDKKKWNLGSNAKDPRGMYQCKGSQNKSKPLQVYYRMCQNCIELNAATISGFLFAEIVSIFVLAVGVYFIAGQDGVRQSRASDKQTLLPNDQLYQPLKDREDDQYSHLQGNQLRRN
# T2 sequence (P04234 22-171, chain 3 of 4): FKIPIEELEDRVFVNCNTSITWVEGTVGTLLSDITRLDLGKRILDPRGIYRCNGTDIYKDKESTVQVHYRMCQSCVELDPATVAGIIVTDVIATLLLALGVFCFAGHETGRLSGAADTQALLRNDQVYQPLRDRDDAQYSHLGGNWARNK
# T2 sequence (P20963 22-164, chain 4 of 4): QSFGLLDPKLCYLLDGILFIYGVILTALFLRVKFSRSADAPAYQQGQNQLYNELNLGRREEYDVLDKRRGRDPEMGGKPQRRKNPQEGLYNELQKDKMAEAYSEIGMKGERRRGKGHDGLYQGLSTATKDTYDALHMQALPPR
binder,measurement,setting,value
B1,koff,[1],~0.01 s⁻¹
same,EC50,[2],6.52 nM
same,Kd,[3],0.3 nM
